Results reported in patent US8916693B2, “Monoconjugated chitosans as delivery agents for small interfering nucleic acids” (Nektar Therapeutics, priority 2009, dated 2014).

Assay: PBS buffer hydrolysis of releasable monoPEGylated chitosan (HPLC, disappearance of starting material)
Format: physicochemical
Conditions: 25 mM PBS, pH 7.3; 2 mg in 1 mL
Method: PBS buffer hydrolysis of releasable monoPEGylated (20 KDa) chitosan (10 KDa): To a solution of 25 mM PBS, pH 7.3, (1 mL) was added the monoPEGylated (20 KDa) chitosan (10 KDa) (2 mg). The solution was filtered through a 0.2 μm filter and analyzed for the disappearance of the PEGylated chitosan starting material on an HPLC system with a flow rate of 0.5 mL/min, gradient (A: 0.1M TEAA, B: 80% ACN and 20% 0.1M TEAA) 15% B 0-4 min, 50% B 8 min, and 58.2% B. The column used was a Zorbax 300SB-C3 3.0×150 mm, […], column.

## Releasable monoPEGylated (20 KDa) Chitosan (10 KDa)
  calculated half-life (hydrolysis, disappearance of the PEGylated chitosan): 7.04 h
